Assay results reported in patent US20160368988A1 (MERUS N V, published 2016).

Columns and labels:
[1] = target: T1, human CD3, membrane-expressed (CD3/TCR complex on HPB-ALL cells or purified human T cells) (human, UniProt P07766 23-207; P04234 22-171; P09693 23-182); assay: flow cytometry on HPB-ALL cells
T1 construct: whole, on cells; On cells CD3 stands in the complex with the TCR and the zeta chain; also called cell surface expressed CD3/TCR complexes

[2] = target: T1, human CD3, membrane-expressed (CD3/TCR …); assay: flow cytometry on CD3+ HPB-ALL cells [panel HPB-ALL]
[3] = target: T2, recombinant purified human CLEC12A (Sino Biological Inc, cat. Nr. 11896-H07H) (human, UniProt Q5QGZ9 65-265); assay: SPR (BIAcore T100), bsAb captured by anti-human IgG on a CM5 chip, antigen in solution; average of three measurements
T2 construct: Bought protein; also called CLEC12A protein
T2 sequence (looked up): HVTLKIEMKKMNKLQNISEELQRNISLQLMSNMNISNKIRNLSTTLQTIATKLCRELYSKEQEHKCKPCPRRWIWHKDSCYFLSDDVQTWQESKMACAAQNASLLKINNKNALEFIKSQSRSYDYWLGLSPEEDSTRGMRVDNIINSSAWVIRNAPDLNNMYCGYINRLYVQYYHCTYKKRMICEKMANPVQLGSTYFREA

[4] = target: T2, recombinant purified human CLEC12A …; assay: SPR (BIAcore T100), ratio of the two KD values
[5] = target: T1, human CD3, membrane-expressed (CD3/TCR …); assay: flow cytometry on HPB-ALL cells; remark: listed apart in the source
[6] = target: T1, human CD3, membrane-expressed (CD3/TCR …); assay: flow cytometry on HPB-ALL cells [upper panel]
[7] = target: T1, human CD3, membrane-expressed (CD3/TCR …); assay: flow cytometry on HPB-ALL cells [lower panel]
[8] = target: T1, human CD3, membrane-expressed (CD3/TCR …); assay: flow cytometry on HPB-ALL cells [lower panel]; remark: listed apart in the source
[9] = target: T1, human CD3, membrane-expressed (CD3/TCR …); assay: flow cytometry on HPB-ALL cells [upper panel]; remark: listed apart in the source

T1 sequence (P07766 23-207, chain 1 of 3): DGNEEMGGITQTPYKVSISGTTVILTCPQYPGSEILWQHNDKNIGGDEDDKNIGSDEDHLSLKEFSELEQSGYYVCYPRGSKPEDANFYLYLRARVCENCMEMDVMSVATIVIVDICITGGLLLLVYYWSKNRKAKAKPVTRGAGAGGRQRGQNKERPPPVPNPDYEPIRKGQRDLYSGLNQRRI
T1 sequence (P04234 22-171, chain 2 of 3): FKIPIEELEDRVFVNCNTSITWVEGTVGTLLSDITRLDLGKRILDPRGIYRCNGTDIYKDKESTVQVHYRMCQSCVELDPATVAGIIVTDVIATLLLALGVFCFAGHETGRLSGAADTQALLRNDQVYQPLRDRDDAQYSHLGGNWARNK
T1 sequence (P09693 23-182, chain 3 of 3): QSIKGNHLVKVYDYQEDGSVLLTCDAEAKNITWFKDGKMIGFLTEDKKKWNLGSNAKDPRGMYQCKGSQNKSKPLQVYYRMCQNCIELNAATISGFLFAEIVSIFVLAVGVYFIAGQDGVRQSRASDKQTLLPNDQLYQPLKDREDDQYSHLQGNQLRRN

B1: PG3873 (antibody, V domains shown)
VH: QVQLVQSGGGVVQPGRSLRLSCVASGFTFSSYGMHWVRQAPGKGLEWVAAIWYQGRKQDYADSVKGRFTISRDNSKNTLYLQMNSLRAEDTAVYYCTRGTGYNWFDPWGQGTLVTVSS
VL: not shown
notes: Full length monoclonal IgG; also called MF3873 as IgG
[1]
  binding result: no binding (tested: 10 µg/ml)

B2: 5196×4327 DM-Fc bsAb (bispecific antibody, V domains shown)
VH 1: QVQLVQSGGGVVQPGRSLRLSCVASGFTFSSYGMHWVRQAPGKGLEWVAAIWYNARKQDYADSVKGRFTISRDNSKNTLYLQMNSLRAEDTAVYYCTRGTGYNWFDPWGQGTLVTVSS
VH 2: QVQLVQSGAEVKKPGASVKVSCKASGYTFTSYYMHWVRQAPGQGLEWMGIINPSGGSTSYAQKFQGRVTMTRDTSTSTVYMELSSLRSEDTAVYYCAKGTTGDWFDYWGQGTLVTVSS
VL: not shown
notes: Full length bispecific IgG with the lower hinge/CH2 changes at positions 235-236 (DM-Fc; L235G, G236R) and CH3 heterodimerisation (KK/DE variants) as in WO2014/051433
[2]
  binding result: binds
[3]
  Kd: 3 nM
[4]
  fold higher affinity of the CLEC12A arm than of the human CD3 binding arm: ~60 fold

B3: PG5196 (antibody, V domains shown)
VH: QVQLVQSGGGVVQPGRSLRLSCVASGFTFSSYGMHWVRQAPGKGLEWVAAIWYNARKQDYADSVKGRFTISRDNSKNTLYLQMNSLRAEDTAVYYCTRGTGYNWFDPWGQGTLVTVSS
VL: not shown
notes: Full length monoclonal IgG; also called PG5196 mAb; MF5196 as IgG
[5]
  binding result: binds

B4: PG5694 (antibody, V domains shown)
VH: QVQLVQSGGGVVQPGRSLRLSCVASGFTFSSYGMHWVRQAPGKGLEWVAAIWYNARKQEYSDSVKGRFTISRDNSKNTLYLQMNSLRAEDTAVYYCTRGTGYNWFDPWGQGTLVTVSS
VL: not shown
notes: Monospecific IgG format; also called MF5694 in monospecific IgG format
[6]
  binding result: binds

B5: PG5603 (antibody, V domains shown)
VH: QVQLVQSGGGVVQPGRSLRLSCVASGFTFSSYGMHWVRQAPGKGLEWVAAIWYNARKQEYIDSVKGRFTISRDNSKNTLYLQMNSLRAEDTAVYYCTRGTGYNWFDPWGQGTLVTVSS
VL: not shown
notes: Monospecific IgG format; also called MF5603 in monospecific IgG format
[6]
  binding result: binds

B6: PG5616 (antibody, V domains shown)
VH: QVQLVQSGGGVVQPGRSLRLSCVASGFTFSSYGMHWVRQAPGKGLEWVAAIWYNARKQEYNDSVKGRFTISRDNSKNTLYLQMNSLRAEDTAVYYCTRGTGYNWFDPWGQGTLVTVSS
VL: not shown
notes: Monospecific IgG format; also called MF5616 in monospecific IgG format
[7]
  binding result: binds

B7: PG5356 (antibody, V domains shown)
VH: QVQLVESGGGVVQPGRSLRLSCAASGFTFSKYGMHWVRQAPGKGLEWVAQIWHDGRKTYYADSVKGRFTISRDNSKNTLYLQMNSLRAEDTAVYYCTRGTGYNWFDPWGQGTLVTVSS
VL: not shown
notes: Monospecific IgG format; also called MF5356 in monospecific IgG format
[8]
  binding result: binds

B8: PG5630 (antibody, V domains shown)
VH: QVQLVQSGGGVVQPGRSLRLSCVASGFTFSSYGMHWVRQAPGKGLEWVAAIWYNARKQDYADSVKGRFTISRDNSKNTLYLQMNSLRAEDTAVYYCTRGTGYNWYDPWGQGTLVTVSS
VL: not shown
notes: Monospecific IgG format; also called MF5630 in monospecific IgG format
[6]
  binding result: binds

B9: PG5626 (antibody, V domains shown)
VH: QVQLVQSGGGVVQPGRSLRLSCVASGFTFSSYGMHWVRQAPGKGLEWVAAIWYNARKQEYRDSVKGRFTISRDNSKNTLYLQMNSLRAEDTAVYYCTRGTGYNWFDPWGQGTLVTVSS
VL: not shown
notes: Monospecific IgG format; also called MF5626 in monospecific IgG format
[7]
  binding result: binds

B10: PG5351 (antibody, V domains shown)
VH: QVQLVQSGGGVVQPGRSLRLSCAASGFTFSSYGMHWVRQAPGKGLEWVAMIWYDGKNTYYADSVKGRFTISRDNSKNTLYLQMNSLRAEDTAVYYCTRGTGYNWFDPWGQGTLVTVSS
VL: not shown
notes: Monospecific IgG format; also called MF5351 in monospecific IgG format
[8]
  binding result: binds

B11: PG3905 (antibody, V domains shown)
VH: QVQLVQSGGGVVQPGRSLRLSCVASGFTFSSYGMHWVRQAPGKGLEWVAAIWYGGRKQDYADSVKGRFTISRDNSKNTLYLQMNSLRAEDTAVYYCTRGTGYNWFDPWGQGTLVTVSS
VL: not shown
notes: Full length monoclonal IgG; also called MF3905 as IgG
[1]
  binding result: no binding (tested: 10 µg/ml)

B12: PG5354 (antibody, V domains shown)
VH: QVQLVQSGGGVVQPGRSLRLSCAASGFTFSGYGMHWVRQAPGKGLEWVAQIYYDGSRTYYADSVKGRFTISRDNSKNTLYLQMNSLRAEDTAVYYCTRGTGYNWFDPWGQGTLVTVSS
VL: not shown
notes: Monospecific IgG format; also called MF5354 in monospecific IgG format
[9]
  binding result: binds

B13: PG5648 (antibody, V domains shown)
VH: QVQLVQSGGGVVQPGRSLRLSCVASGFTFSSYGMHWVRQAPGKGLEWVAAIWYNARKQEYLDSVKGRFTISRDNSKNTLYLQMNSLRAEDTAVYYCTRGTGYNWFDPWGQGTLVTVSS
VL: not shown
notes: Monospecific IgG format; also called MF5648 in monospecific IgG format
[6]
  binding result: binds
